The values that follow are results of earlier work, collected in patent US8071839B2, “Transgenic mouse comprising a polynucleotide encoding human or humanized C5aR and methods of production and use” (G2 Inflammation Pty Ltd, priority 2003, dated 2011).

For series [1], the target named is T1, C5aR (Homo sapiens, UniProt P21730).
T1 sequence (P21730 1-350): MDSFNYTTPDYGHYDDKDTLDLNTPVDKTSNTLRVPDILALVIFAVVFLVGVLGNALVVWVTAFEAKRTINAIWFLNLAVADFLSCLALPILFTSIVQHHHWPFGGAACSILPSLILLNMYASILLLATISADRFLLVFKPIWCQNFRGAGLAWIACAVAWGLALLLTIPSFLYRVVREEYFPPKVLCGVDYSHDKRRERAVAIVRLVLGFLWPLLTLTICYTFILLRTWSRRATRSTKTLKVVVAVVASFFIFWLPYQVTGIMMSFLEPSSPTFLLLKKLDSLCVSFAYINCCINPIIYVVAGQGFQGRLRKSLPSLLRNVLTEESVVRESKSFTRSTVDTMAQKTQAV

The target in series [2] is T1, C5aR. The note with it: read-out: Kd of C5aR for C5a.

B1: murine C5a: mouse C5a, ligand that binds human C5aR (protein, UniProt P06684 679-755, looked up)
C5a anaphylatoxin: NLHLLRQKIEEQAAKYKHSVPKKCCYDGARVNFYETCEERVARVTIGPLCIRAFNECCTIANKIRKESPHKPVQLGR
modifications: C5a anaphylatoxin
As to B1, in series [1], the “binding affinity for human C5aR” value is listed as “high affinity”.

B2: C5a: anaphylatoxin fragment of complement protein C5, natural ligand of C5aR (protein, UniProt P01031 678-751, looked up)
C5a anaphylatoxin: TLQKKIEEIAAKYKHSVVKKCCYDGACVNNDETCEQRAARISLGPRCIKAFTECCVVASQLRANISHKDMQLGR
modifications: C5a anaphylatoxin
notes: anaphylatoxin fragment of complement protein C5, natural ligand of C5aR
Broadly, the Kd is the equilibrium constant for the complex coming apart. As to B2, the dissociation constant (Kd) in series [2] is approximately 1 nM.
